This test has as its target human recombinant galectin-9, medium isoform (gal-9M) (human) (UniProt O00182). Put plainly: SPR; Biacore T200; gal-9M covalently bound to a CM5 chip (NHS/EDC, 10 μg/mL, pH 5, acetate buffer); Gal-Nab1 and Gal-Nab2 as analytes, 1.5 to 400 nM, 40 μL/min, 400 s, albumin 0.1 mg/mL and tween 0.05%; dissociation 500 s; the paper says the KD reflects avidity rather than affinity (apparent). Background: SPR reads the build-up and loss of mass on a sensor chip optically.

Chain of human recombinant galectin-9, medium isoform (gal-9M) (human) (O00182 other isoform, or with tags, fused parts or gaps): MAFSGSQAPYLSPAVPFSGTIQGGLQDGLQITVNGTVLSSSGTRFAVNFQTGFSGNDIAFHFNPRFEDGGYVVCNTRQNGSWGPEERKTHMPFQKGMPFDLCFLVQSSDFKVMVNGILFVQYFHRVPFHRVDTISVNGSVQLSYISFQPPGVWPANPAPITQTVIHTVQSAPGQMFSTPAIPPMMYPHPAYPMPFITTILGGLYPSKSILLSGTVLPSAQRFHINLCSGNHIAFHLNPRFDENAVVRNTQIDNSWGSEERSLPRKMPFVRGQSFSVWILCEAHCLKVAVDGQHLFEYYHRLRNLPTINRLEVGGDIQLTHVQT

B1: Gal-Nab1 (antibody, V domains shown)
VH: KVQLQQSGAELVKPGASVKLSCKASGYTFTDYTIHWVKQRSGQGLEWIGWFYPGSHSIKYNEQFKDRATLTADKSSSTVYMELSRLTSEDSAVYFCTRHGGYDGFDYWGQGTTLTVSS
VL: DIVMSQSPSSLAVSVGEKITMSCKSSQSLFYSTNQKNYLAWYQQKPGQSPKLLIYWASTRESGVPDRFTGSGSGTDFTLTISSVKAEDLAVYYCQQYYYFPYTFGGGTKLEIK
The koff is a measure of how fast the partners let go of each other. The kon is the second-order rate constant of association. For the molecule B1, the Kd stood at 4.34 nM, the koff was determined as 0.000115 s⁻¹, the kon was 26500 M⁻¹ s⁻¹ and the t1/2 stood at 2.07 h.

Source of the values: publication PMC6133441.
